Results from IntAct's records for PubMed 19503079.

How the values were obtained:
atxr5_arath ATXR5 = target: T1, atxr5_arath ATXR5 (UniProt Q8VZJ1)
T1 sequence: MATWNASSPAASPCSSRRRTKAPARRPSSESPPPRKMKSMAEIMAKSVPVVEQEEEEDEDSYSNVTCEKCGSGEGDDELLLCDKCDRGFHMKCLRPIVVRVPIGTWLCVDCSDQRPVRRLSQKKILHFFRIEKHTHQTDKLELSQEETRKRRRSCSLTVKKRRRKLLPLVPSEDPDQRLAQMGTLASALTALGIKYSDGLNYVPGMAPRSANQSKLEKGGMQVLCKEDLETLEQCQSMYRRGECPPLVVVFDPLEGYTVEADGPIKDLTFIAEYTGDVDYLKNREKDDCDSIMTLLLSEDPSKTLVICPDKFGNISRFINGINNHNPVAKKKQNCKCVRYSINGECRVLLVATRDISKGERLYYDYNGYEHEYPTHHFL

atxr6_arath ATXR6 = target: T2, atxr6_arath ATXR6 (UniProt Q9FNE9)
T2 sequence: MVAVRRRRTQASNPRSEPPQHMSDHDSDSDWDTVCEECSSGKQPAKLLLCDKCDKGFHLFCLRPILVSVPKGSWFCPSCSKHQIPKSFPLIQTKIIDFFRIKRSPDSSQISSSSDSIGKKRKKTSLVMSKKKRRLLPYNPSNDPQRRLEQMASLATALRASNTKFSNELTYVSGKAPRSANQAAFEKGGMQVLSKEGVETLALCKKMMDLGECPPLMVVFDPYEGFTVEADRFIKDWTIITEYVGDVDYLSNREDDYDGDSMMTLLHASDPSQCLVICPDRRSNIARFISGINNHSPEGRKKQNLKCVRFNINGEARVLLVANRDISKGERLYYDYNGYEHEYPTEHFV

## Histone H3.1 (Arabidopsis thaliana (Mouse-ear cress)) (from UniProt P59226) K28A
atxr5_arath ATXR5
  effect of a mutation on the interaction: disrupting interaction
atxr6_arath ATXR6
  effect of a mutation on the interaction: disrupting interaction
